Changes are numbered by the printed parent chain.
B1: C510 (antibody, V domains shown)
VH: QVQLQQWGAGLLKPSETLSRTCAVYGGSFSGYYWSWFRQSPGKGLEWIGEINHSGSTNYNPSLKNRVTISVDTSKNQFSLMLSSVTAADTAVYYCARGGFGVVINYYYSGMDVWGRGTTVTVSS
VL: not shown
B2: C507 (antibody, V domains shown)
VH: EVQLVESGGGVVQPGRSLRLSCAASGFTFSSYAIHWVRQAPGKGLEWVAVISFDGSNKYYRDSVKGRFTISRDNGKNTLYLQMNSLRAEDTAVYYCAKAALGYCTNGVCYCDNWGQGTLVTVSS
VL: NFMLTQPHSVSESPGKTVTISCTGSSGSIASNYVQWYQQRPGSAPTTVIYEDNQRPSGVPDRFSGSIDSSSNSASLSISGLKTEDEADYYCQSYDINSLWVFGGGTRLTVL
B3: C505 (antibody, V domains shown)
VH: EVQLLESGGGLVQPGGSLRLSCADSGFSFSTYGMSWVRQAPGKGLEWVSTISGSGDNTYHADSVKGRFTISRDNSKNTLYLQMNSLRAEDTAVYYCAKNIAEMSTFDDYFYYYGMDVWGQGTTVTVSS
VL: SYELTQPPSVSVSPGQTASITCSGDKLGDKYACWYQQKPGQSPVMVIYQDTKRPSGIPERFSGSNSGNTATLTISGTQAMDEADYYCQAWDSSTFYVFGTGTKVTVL
B4: C504 (antibody, V domains shown)
VH: QVQLQESGPGLVKPSETLSLTCTVSGGSISSSYWNWIRQSPGKGLEWIGYIYYDGYTTFNPSLKSRVTISVDTSKNQFSLKLSSVTAADTAFYYCAAGLKGRSSSWYEYWGQGTLVTVSS
VL: DIQMTQSPSSLSASVGDRVTITCRASQSISSYLNWYQQKPGKAPKLLIYATSSLQSGVPSRFSGSGSGTDFTLTITSLQPEDFATYYCQQTYSSPHTFGQGTKLEIK
B5: C502 (antibody, V domains shown)
VH: QVQLVQSGAEVKKPGSSVKVSCKASGDTFSSHAINWVRQAPGQGLEWMGRSIPMLGVTTSAQKFKGRVTITADHSTSTVFMDLSSLRSDDTAIYYCARGVVGATPGSFDLWGQGTMVTVSS
VL: EIVMTQSPATLSVSPGKRATLSCRASQSVRSNLAWYQQRPGQAPRLLIYDAATRATGIPTRFSGSGSGTEFTLTISSLQSEDFAVYYCQQYDNGLTFGGGTKVEIK
B6: C509 (antibody, V domains shown)
VH: QVQLQESGPGLVKPSGTLSLTCAVSGGSISSSNWWSWVRQPPGKGLEWIGEIYNSGSTNYNPSLKSRVTILVDKSKNQFSLKLSSVTAADTAVYYCAGSYSNYIGGVWFDPWGQGTLVTVSS
VL: EIVLTQSPATLSLSPGERATLSCRASQSVSTYLAWYQQKPGQAPRLLIYDASNRATGIPARFSGSGSGTDFTLTISSLEPEDFAVYYCQQRNNWLTFGGGTKVEIK
B7: C506 (antibody, V domains shown)
VH: EVQLVESGGGLVQPGGSLRLSCAASGFTFSSYDMHWVRQGTGKGLEWVSVIGTAGDAYYPGSVKGRFTISRENAKNSLYLQMNSLRAGDTAVYYCARMVYDSSGFKGYFDLWGRGTLVTVSS
VL: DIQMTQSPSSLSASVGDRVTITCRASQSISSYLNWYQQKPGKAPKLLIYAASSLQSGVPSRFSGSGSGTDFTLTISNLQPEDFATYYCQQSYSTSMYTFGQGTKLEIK
B8: C503 (antibody, V domains shown)
VH: QVQLQESGPGLVQPSGTLSLSCTVTGGSISSNNWWSWVRQSPVKGLEWIGEIYHNGNINYNPSLKSRVTMSIDKSKNHFSLKLSSVTAADTAVYYCARGDVLDWFDPWGQGTLVTVS
VL: QSALTQPASVSGSPGQSITFSCTGTSSDVGAYNYISWYQQHPGKAPKLMIYDVNNRPSGVSRRFSGSKSGNTASLTISGLQSEDEADYFCSSYAGNSTVRFGGGTKLTVL
B9: C518 (antibody, V domains shown)
VH: EVQLVESGGGLIQPGGSLRLSCAASGITVSSNYMSWVRQAPGKGLEWVSVMYAGGSSFYADSVKGRFTISRDNSKNTLYLQMNSLRVEDTAVYYCARDLIALGVDVWGQGTTVTVSS
VL: DIQLTQSPSFLSASVGDRVTITCRASQGISSYLAWYQQKPGKAPKLLIYAASTLQSGVPSRFSGSGSGTEFTLTISSLQPEDFATYYCQLLNSYPMCSFGQGTKLEIK
B10: C519 (antibody, V domains shown)
VH: QVQLQESGPGLVKPSETLSLTCAVSGGSISSYYWSWIRQPPGKGLEWIGYIDTSGSTNYNPSLKSRVTMSVDTSKNQFSLNVNSVTAADTAVYFCGVCAGDCYAASVFDYRGQGTLVTVSS
VL: DIQMTQSPSSLSASVGDRVTITCQASQDIIFYLNWYQQKPGKAPKLLIYDASNLKTGVPSRFSGSGSGTDFAFTISSLQPEDIATYYCQQYDNLPLTFGGGTKVEIK
B11: C089 (antibody, V domains shown)
VH: QVQLVESGGGVVQPGRSLRLSCAASGFTFRTYAMHWVRQAPGKGLEWVAVILSDGNNKYYADSVKGRFTISRDNSKNTLYLQMNSLRAEDTAIFYCAREQEANYYDISGYYHWGESLGYWGQGTLVTVSS
VL: DIQLTQSPSFLSASVGDRVTITCRASQGISSYLAWYQQKPGKAPKLLIYGASTLQSGVPSRFSGSGSGTEFTLTISSLQPEDFASYYCQKVNSHPPGLTFGGGTKVEIK
B12: C090 (antibody, V domains shown)
VH: B11 VH
VL: B11 VL with L46F, H94Y
B13: C088 (antibody, V domains shown)
VH: QVQLVQSGAEAKKPGASVKVSCKTSGYTFTNYFMHWVRQAPGQGPEWMGIIDSSDGGASYAQKFQGRVTMTRDTSTSTVYMELRSLKFEDTAVYYCARASTSTTSWSDALSLGSWGQGTLVTVSS
VL: QSVLTQPPSVSGAPGQRVTISCTGSSSNIGGGSVVHWYQQLPGTAPKLLIYANSNRPSGVPDRFSGSKSGTSASLAIAGLQAEDEADYYCQSWDNGLSASGVVFGGGTKLTVL
B14: C083 (antibody, V domains shown)
VH: EVQLVESGGGLVKPGGSLRLSCAASGFTFSSYSMNWVRQAPGKGLEWVSSISSSTSYIYYADSVKGRFTISRDNAKNSLYLQMNSLRAEDTAVYYCARERYGDNWGQGTLVTVSS
VL: QLVLTQSPSASASLGASVKLTCTLSSGHSSYAIAWHQQQPEKGPRYLMSLNSDGSHSKGDGIPDRFSGSSSGAERYLTISSLQSEDEADYYCQTWGPWVFGGGTKLTVL
B15: C085 (antibody, V domains shown)
VH: QVQLQESGPGLVKPSETLSLTCTVSGDSMSSYFWTWIRQPPGKGLECIGYFYPSGSTNYNPSLKSRVTISIDTSKNQFSLKLSSVTAADTAVYYCARLKQQLVGFGWFDPWGQGTLVTVSS
VL: QSVLTQPPSVSGAPGQRVTISCTGSSSNIGADYDVHWYQQFPGTAPKVLIYANTNRPSGVPERFSGSKSGTSASLAITGLQAEDEADYYCQSYDHSLNWVFGGGTKLTVL
B16: C086 (antibody, V domains shown)
VH: B15 VH with M29I, S31T, T35A, K43R, Y50S, Y52F, N58Y, I71V, S83N, T115S
VL: B15 VL with S26I, D34E, Q39V, G66A, S96R, N98H
B17: C081 (antibody, V domains shown)
VH: EVQLVESGGGLVKPGGSLRLSCAASGFTFSSAWMSWVRQAPGKGLEWVGRIKTKTDGGTKDYAAPVKGRFTISRDDSKNTLYLQMNSLKTEDTAVYYCTTTNDYGDYSPAYWGQGTLVTVSS
VL: not shown
B18: C069 (antibody, V domains shown)
VH: QVQLVQSGAEVKKPGSSVNVSCKASGGTFSTYAIHWVRQAPGQGLEWMGGIIPLFHTANYAQKFQGRVTITADESTSTAYMELSSLRSEDTAMYYCAINTQWDLVPRWGRGTLVTVSS
VL: EIVLTQSPGTLSLAPGERATLSCRASQSVNSNYLAWYQQKPGQAPRLLIYGASSRATGIPDRFSGSGSGTDFTLTISRLEPEDFAVYYCQQYGFSLYSFGQGTKLEIK

The binders below were run against SARS-CoV-2 spike protein receptor binding domain (RBD), wild type (SARS-CoV-2, UniProt P0DTC2 319-539) (assay: ELISA, RBD protein coated on plate, antibody titrated).

Binder	EC50
B1	308 ng/mL
B2	5.6 ng/mL
B3	16 ng/mL
B4	9.08 ng/mL
B5	6.48 ng/mL
B6	4.44 ng/mL
B7	5.94 ng/mL
B8	6.55 ng/mL

What follows are binders tested against SARS-CoV-2 spike protein receptor binding domain (RBD) (SARS-CoV-2, UniProt P0DTC2 319-539) (assay: ELISA on coated RBD protein).

Binder	EC50
B9	1.13 ng/mL
B10	1.07 ng/mL
B11	4.69 ng/mL
B12	6.22 ng/mL
B13	2.44 ng/mL
B14	25.1 ng/mL
B15	2.38 ng/mL
B16	3.01 ng/mL
B17	12.5 ng/mL
B18	381 ng/mL

Source: US20220195015A1 (published 2022)
